# Measurements published in paper PMC8386104 (RSC Chemical Biology, 2020).
# T1: MDMX (UniProt O15151 1-490)
# T1 sequence: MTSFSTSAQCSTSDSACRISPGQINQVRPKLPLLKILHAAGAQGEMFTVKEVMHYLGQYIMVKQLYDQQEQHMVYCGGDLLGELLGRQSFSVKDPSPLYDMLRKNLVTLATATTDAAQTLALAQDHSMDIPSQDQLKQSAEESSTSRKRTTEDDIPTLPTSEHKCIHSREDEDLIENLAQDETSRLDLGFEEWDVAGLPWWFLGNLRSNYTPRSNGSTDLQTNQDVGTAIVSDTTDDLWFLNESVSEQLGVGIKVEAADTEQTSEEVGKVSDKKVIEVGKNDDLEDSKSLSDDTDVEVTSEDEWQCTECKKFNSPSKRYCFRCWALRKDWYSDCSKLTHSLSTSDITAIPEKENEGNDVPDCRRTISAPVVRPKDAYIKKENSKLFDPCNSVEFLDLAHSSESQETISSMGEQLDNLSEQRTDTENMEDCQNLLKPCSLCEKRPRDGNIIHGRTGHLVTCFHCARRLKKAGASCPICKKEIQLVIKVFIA
# Assays:
# MDM2 = MDM2 (UniProt Q00987 1-491); assay: fluorescence polarisation
# MDMX = target: T1, MDMX; assay: fluorescence polarisation
# Chain of MDM2 (Q00987 whole entry): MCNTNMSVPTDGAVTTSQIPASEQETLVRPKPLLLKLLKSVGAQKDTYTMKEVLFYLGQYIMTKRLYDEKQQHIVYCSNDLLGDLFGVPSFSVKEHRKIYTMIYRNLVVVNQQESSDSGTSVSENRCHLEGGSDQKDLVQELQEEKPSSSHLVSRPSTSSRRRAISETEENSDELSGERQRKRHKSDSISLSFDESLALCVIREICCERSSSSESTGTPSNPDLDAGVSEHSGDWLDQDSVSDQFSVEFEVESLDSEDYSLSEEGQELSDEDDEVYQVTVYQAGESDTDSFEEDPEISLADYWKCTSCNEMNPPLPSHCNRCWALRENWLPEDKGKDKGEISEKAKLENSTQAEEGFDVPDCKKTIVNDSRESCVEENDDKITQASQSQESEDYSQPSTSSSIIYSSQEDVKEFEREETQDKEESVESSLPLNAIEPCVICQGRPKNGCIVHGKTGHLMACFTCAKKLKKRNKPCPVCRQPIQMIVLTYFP
binder,measurement,setting,value
"LTFEHYWALLT (designed binder, C-terminal amide) [PF4P_pDI]",IC50,MDM2,< 1 nM
same,IC50,MDMX,< 1 nM
